In patent EP2149585A1:
Where two headings read alike, the source gives them in different places.

Legend:
Test in all cases: cell-based or functional assay
[1] = target: human CD40 on B cells in PBMC from normal human subjects (human) (UniProt P25942)
[2] = target: human CD40 on B cells within PBMC from normal human subjects (human) (UniProt P25942)
[3] = target: human CD40 on normal human B cells / PBMC (human) (UniProt P25942)
[4] = target: human CD40 on normal human B cells / PBMC (human) (UniProt P25942); remark: listed apart in the source
[5] = target: human CD40 on the cell surface (human) (UniProt P25942)
Sequence of human CD40 on the cell surface (human) (P25942 20-277): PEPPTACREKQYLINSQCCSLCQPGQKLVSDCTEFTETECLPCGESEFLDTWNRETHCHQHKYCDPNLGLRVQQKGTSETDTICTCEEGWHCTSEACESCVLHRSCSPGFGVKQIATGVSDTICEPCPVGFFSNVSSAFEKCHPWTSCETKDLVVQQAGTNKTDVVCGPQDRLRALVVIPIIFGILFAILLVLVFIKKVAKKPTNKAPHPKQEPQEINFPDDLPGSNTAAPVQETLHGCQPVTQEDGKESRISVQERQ

[6] = target: CD20 on the cell surface (human) (UniProt P11836)
Sequence of CD20 on the cell surface (human) (P11836 whole entry): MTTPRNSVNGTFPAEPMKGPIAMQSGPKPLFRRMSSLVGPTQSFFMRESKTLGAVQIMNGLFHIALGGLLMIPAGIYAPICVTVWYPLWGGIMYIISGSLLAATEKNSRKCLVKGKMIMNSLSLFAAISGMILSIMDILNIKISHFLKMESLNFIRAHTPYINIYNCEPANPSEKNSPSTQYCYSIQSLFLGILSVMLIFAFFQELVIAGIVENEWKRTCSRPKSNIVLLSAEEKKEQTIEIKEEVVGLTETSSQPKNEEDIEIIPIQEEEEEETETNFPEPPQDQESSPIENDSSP

Sequence of human CD40 on normal human B cells / PBMC (human) (P25942 20-277): as the sequence (P25942 20-277) above
Sequence of human CD40 on B cells within PBMC from normal human subjects (human) (P25942 20-277): as above
Sequence of human CD40 on B cells in PBMC from normal human subjects (human) (P25942 20-277): as above

CD40 ligand expressed on formaldehyde-fixed CHO cells (from UniProt P29965 1-261)
Average SI of PBMC, index(1), PBMC+CHO-CD40L [1]: 5.09 | CPM, PBMC+CHO-CD40L (PBMC-010) [1]: 5280 CPM | CPM, PBMC+CHO-CD40L (PBMC-011 Donor#1) [1]: 8250 CPM | CPM, PBMC+CHO-CD40L (PBMC-011 Donor#2) [1]: 11600 CPM | CPM, PBMC+CHO-CD40L (PBMC-011 Donor#3) [1]: 7960 CPM | CPM, PBMC+CHO-CD40L (PBMC-011 Donor#4) [1]: 14300 CPM | CPM, PBMC+CHO-CD40L (PBMC-014) [1]: 8790 CPM | CPM, PBMC+CHO-CD40L (PBMC-015 Donor#1) [1]: 12900 CPM | CPM, PBMC+CHO-CD40L (PBMC-015 Donor#2) [1]: 19100 CPM | CPM, PBMC+CHO-CD40L (PBMC-015 Donor#3) [1]: 19800 CPM | CPM, PBMC+CHO-CD40L (PBMC-016) [1]: 15800 CPM | index(1), PBMC+CHO-CD40L (PBMC-010) [1]: 3.73 | index(1), PBMC+CHO-CD40L (PBMC-011 Donor#1) [1]: 3.86 | index(1), PBMC+CHO-CD40L (PBMC-011 Donor#2) [1]: 4.87 | index(1), PBMC+CHO-CD40L (PBMC-011 Donor#3) [1]: 2.46 | index(1), PBMC+CHO-CD40L (PBMC-011 Donor#4) [1]: 3.41 | index(1), PBMC+CHO-CD40L (PBMC-014) [1]: 3.74 | index(1), PBMC+CHO-CD40L (PBMC-015 Donor#1) [1]: 3.94 | index(1), PBMC+CHO-CD40L (PBMC-015 Donor#2) [1]: 3.14 | index(1), PBMC+CHO-CD40L (PBMC-015 Donor#3) [1]: 8 | index(1), PBMC+CHO-CD40L (PBMC-016) [1]: 13.8 | Average SI of PBMC, index(1) [2]: 11.9 | Average Stimulation index, S.index (1) [2]: 22 | PBMC proliferation CPM (PBMC+CHO-CD40L), Immoblize-004 [2]: 11700 CPM | PBMC proliferation CPM (PBMC+CHO-CD40L), PBMC-012 [2]: 6810 CPM | PBMC proliferation CPM (PBMC+CHO-CD40L), PBMC-025 Donor#1 [2]: 42300 CPM | PBMC proliferation CPM (PBMC+CHO-CD40L), PBMC-025 Donor#2 [2]: 15000 CPM | PBMC proliferation CPM (PBMC+CHO-CD40L), PBMC-026 Donor#1 [2]: 18300 CPM | PBMC proliferation CPM (PBMC+CHO-CD40L), PBMC-026 Donor#2 [2]: 18100 CPM | PBMC proliferation CPM (PBMC+CHO-CD40L), PBMC-027 Donor#1 [2]: 13000 CPM | PBMC proliferation CPM (PBMC+CHO-CD40L), PBMC-027 Donor#2 [2]: 11900 CPM | PBMC proliferation CPM (PBMC+CHO-CD40L), PBMC-028 Donor#1 [2]: 22500 CPM | PBMC proliferation CPM (PBMC+CHO-CD40L), PBMC-028 Donor#2 [2]: 54900 CPM | PBMC proliferation CPM (PBMC+CHO-CD40L), PBMC-029 Donor#1 [2]: 10100 CPM | PBMC proliferation CPM (PBMC+CHO-CD40L), PBMC-029 Donor#2 [2]: 23100 CPM | PBMC proliferation CPM (PBMC+CHO-CD40L), PBMC-030 Donor#1 [2]: 57200 CPM | PBMC proliferation CPM (PBMC+CHO-CD40L), PBMC-030 Donor#2 [2]: 53900 CPM | PBMC proliferation CPM (PBMC+CHO-CD40L), PBMC-032 Donor#1 [2]: 15300 CPM | PBMC proliferation S.index (1), Immoblize-004 [2]: 13.7 | PBMC proliferation S.index (1), PBMC-012 [2]: 30.3 | PBMC proliferation index(1), PBMC-025 Donor#1 [2]: 10.4 | PBMC proliferation index(1), PBMC-025 Donor#2 [2]: 6.63 | PBMC proliferation index(1), PBMC-026 Donor#1 [2]: 8.78 | PBMC proliferation index(1), PBMC-026 Donor#2 [2]: 26.7 | PBMC proliferation index(1), PBMC-027 Donor#1 [2]: 4.75 | PBMC proliferation index(1), PBMC-027 Donor#2 [2]: 8.89 | PBMC proliferation index(1), PBMC-028 Donor#1 [2]: 5.26 | PBMC proliferation index(1), PBMC-028 Donor#2 [2]: 25.6 | PBMC proliferation index(1), PBMC-029 Donor#1 [2]: 16.5 | PBMC proliferation index(1), PBMC-029 Donor#2 [2]: 2.99 | PBMC proliferation index(1), PBMC-030 Donor#1 [2]: 13.7 | PBMC proliferation index(1), PBMC-030 Donor#2 [2]: 16.2 | PBMC proliferation index(1), PBMC-032 Donor#1 [2]: 8.45 | CPM, B cells + CHO-CD40L; B cell-004 donor 2 [3]: 27200 CPM | CPM, B cells+CHO-CD40L; B cell-004 donor 1 [3]: 3130 CPM | CPM, B cells+CHO-CD40L; B cell-005 donor 3 [3]: 24600 CPM | CPM, PBMC+CHO-CD40L (tritiated thymidine); PBMC-025 Donor#1 [3]: 42300 CPM | CPM, PBMC+CHO-CD40L (tritiated thymidine); PBMC-025 Donor#2 [3]: 15000 CPM | CPM, PBMC+CHO-CD40L (tritiated thymidine); PBMC-026 Donor#1 [3]: 19100 CPM | CPM, PBMC+CHO-CD40L (tritiated thymidine); PBMC-026 Donor#2 [3]: 17800 CPM | CPM, PBMC+CHO-CD40L (tritiated thymidine); PBMC-028 Donor#1 [3]: 22500 CPM | CPM, PBMC+CHO-CD40L (tritiated thymidine); PBMC-028 Donor#2 [3]: 54900 CPM | CPM, PBMC+CHO-CD40L (tritiated thymidine); PBMC-029 Donor#1 [3]: 10100 CPM | CPM, PBMC+CHO-CD40L (tritiated thymidine); PBMC-029 Donor#2 [3]: 23100 CPM | CPM, PBMC+CHO-CD40L (tritiated thymidine); PBMC-030 Donor#1 [3]: 53400 CPM | CPM, PBMC+CHO-CD40L (tritiated thymidine); PBMC-030 Donor#2 [3]: 53800 CPM | CPM, PBMC+CHO-CD40L (tritiated thymidine); PBMC-032 Donor#1 [3]: 14100 CPM | Average Stimulation Index (SI), B cells+CHO-CD40L [4]: 145 | CPM, B cells+CHO-CD40L; B cell-004 donor 1 [4]: 3130 CPM | CPM, B cells+CHO-CD40L; B cell-005 donor 3 [4]: 24600 CPM | CPM, B cells+CHO-CD40L; donor 2 [4]: 27200 CPM | S. index(1) = CPM (B cells+CHO-CD40L)/CPM (B cells alone); B cell-004 donor 1 [4]: 7.49 | S. index(1) = CPM (B cells+CHO-CD40L)/CPM (B cells alone); B cell-005 donor 3 [4]: 92 | S. index(1) = CPM (B cells+CHO-CD40L)/CPM (B cells alone); donor 2 [4]: 336

CD40 ligand on formaldehyde-fixed CHO cells (from UniProt P29965 1-261)
average stimulation index (SI) of PBMC proliferation [5]: 7.41

rituximab (antibody)
% lysis - % lysis IgG1; ADCC-006, huNK E:T 2, 0.01 ug/ml [6]: 33% | % lysis - % lysis IgG1; ADCC-006, huNK E:T 2, 0.1 ug/ml [6]: 44.6% | % lysis - % lysis IgG1; ADCC-006, huNK E:T 2, 1 ug/ml [6]: 45.7% | % lysis - % lysis IgG1; ADCC-006, huNK E:T 2, 10 ug/ml [6]: 37.9% | % lysis - % lysis IgG1; ADCC-009 Calcein AM, huNK E:T 10, 0.04 ug/ml [6]: 81.5% | % lysis - % lysis IgG1; ADCC-009 Calcein AM, huNK E:T 10, 0.2 ug/ml [6]: 90.2% | % lysis - % lysis IgG1; ADCC-009 Calcein AM, huNK E:T 10, 1 ug/ml [6]: 87.7% | % lysis - % lysis IgG1; ADCC-009 Calcein AM, huNK E:T 10, 5 ug/ml [6]: 83.9% | % lysis - % lysis IgG1; ADCC-011 Calcein AM, huNK E:T 8, 0.0004 ug/ml [6]: -1.04% | % lysis - % lysis IgG1; ADCC-011 Calcein AM, huNK E:T 8, 0.002 ug/ml [6]: 4.16% | % lysis - % lysis IgG1; ADCC-011 Calcein AM, huNK E:T 8, 0.01 ug/ml [6]: 10.1% | % lysis - % lysis IgG1; ADCC-011 Calcein AM, huNK E:T 8, 1 ug/ml [6]: 19.3% | % lysis - % lysis IgG1; ADCC-012 Calcein AM, huNK E:T 10, 0.001 ug/ml [6]: 21.1% | % lysis - % lysis IgG1; ADCC-012 Calcein AM, huNK E:T 10, 0.005 ug/ml [6]: 25.7% | % lysis - % lysis IgG1; ADCC-012 Calcein AM, huNK E:T 10, 0.01 ug/ml [6]: 37.9% | % lysis - % lysis IgG1; ADCC-012 Calcein AM, huNK E:T 10, 1 ug/ml [6]: 52.5% | % lysis - % lysis IgG1; ADCC-012 Calcein AM, huNK E:T 10, 10 ug/ml [6]: 37.4% | % lysis - % lysis IgG1; ADCC-013 51Cr, PBMC E:T 100, 0.001 ug/ml [6]: 0.35% | % lysis - % lysis IgG1; ADCC-013 51Cr, PBMC E:T 100, 0.01 ug/ml [6]: 9.87% | % lysis - % lysis IgG1; ADCC-013 51Cr, PBMC E:T 100, 0.1 ug/ml [6]: 24.7% | % lysis - % lysis IgG1; ADCC-013 51Cr, PBMC E:T 100, 1 ug/ml [6]: 29.7% | % lysis; ADCC-006, huNK E:T 2, 0.01 ug/ml [6]: 28.5% | % lysis; ADCC-006, huNK E:T 2, 0.1 ug/ml [6]: 33.6% | % lysis; ADCC-006, huNK E:T 2, 1 ug/ml [6]: 37.1% | % lysis; ADCC-006, huNK E:T 2, 10 ug/ml [6]: 34.8% | % lysis; ADCC-009 Calcein AM, huNK E:T 10, 0.04 ug/ml [6]: 84.9% | % lysis; ADCC-009 Calcein AM, huNK E:T 10, 0.2 ug/ml [6]: 88.8% | % lysis; ADCC-009 Calcein AM, huNK E:T 10, 1 ug/ml [6]: 88.2% | % lysis; ADCC-011 Calcein AM, huNK E:T 8, 0.0004 ug/ml [6]: 5.99% | % lysis; ADCC-011 Calcein AM, huNK E:T 8, 0.002 ug/ml [6]: 9.58% | % lysis; ADCC-011 Calcein AM, huNK E:T 8, 0.01 ug/ml [6]: 14.7% | % lysis; ADCC-011 Calcein AM, huNK E:T 8, 1 ug/ml [6]: 22.4% | % lysis; ADCC-012 Calcein AM, huNK E:T 10, 0.001 ug/ml [6]: 33.1% | % lysis; ADCC-012 Calcein AM, huNK E:T 10, 0.005 ug/ml [6]: 39.3% | % lysis; ADCC-012 Calcein AM, huNK E:T 10, 0.01 ug/ml [6]: 50.2% | % lysis; ADCC-012 Calcein AM, huNK E:T 10, 1 ug/ml [6]: 66% | % lysis; ADCC-012 Calcein AM, huNK E:T 10, 10 ug/ml [6]: 50.8% | % lysis; ADCC-013 51Cr, PBMC E:T 100, 0.001 ug/ml [6]: 3.13% | % lysis; ADCC-013 51Cr, PBMC E:T 100, 0.01 ug/ml [6]: 12.8% | % lysis; ADCC-013 51Cr, PBMC E:T 100, 0.1 ug/ml [6]: 27.2% | % lysis; ADCC-013 51Cr, PBMC E:T 100, 1 ug/ml [6]: 32.3% | Average % lysis at 1 ug/ml concentration of mAbs (% lysis - % lysis IgG1) [6]: 47.2%
